This test deals with T1, α-2 macroglobulin (Homo sapiens (Human), UniProt P01023 24-1474, Native alpha-2-macroglobulin is a glycosylated homotetramer (disulfide-linked dimers) with an internal thioester; one subunit is given.).
T1 construct: also called alpha-2 macroglobulin
T1 sequence: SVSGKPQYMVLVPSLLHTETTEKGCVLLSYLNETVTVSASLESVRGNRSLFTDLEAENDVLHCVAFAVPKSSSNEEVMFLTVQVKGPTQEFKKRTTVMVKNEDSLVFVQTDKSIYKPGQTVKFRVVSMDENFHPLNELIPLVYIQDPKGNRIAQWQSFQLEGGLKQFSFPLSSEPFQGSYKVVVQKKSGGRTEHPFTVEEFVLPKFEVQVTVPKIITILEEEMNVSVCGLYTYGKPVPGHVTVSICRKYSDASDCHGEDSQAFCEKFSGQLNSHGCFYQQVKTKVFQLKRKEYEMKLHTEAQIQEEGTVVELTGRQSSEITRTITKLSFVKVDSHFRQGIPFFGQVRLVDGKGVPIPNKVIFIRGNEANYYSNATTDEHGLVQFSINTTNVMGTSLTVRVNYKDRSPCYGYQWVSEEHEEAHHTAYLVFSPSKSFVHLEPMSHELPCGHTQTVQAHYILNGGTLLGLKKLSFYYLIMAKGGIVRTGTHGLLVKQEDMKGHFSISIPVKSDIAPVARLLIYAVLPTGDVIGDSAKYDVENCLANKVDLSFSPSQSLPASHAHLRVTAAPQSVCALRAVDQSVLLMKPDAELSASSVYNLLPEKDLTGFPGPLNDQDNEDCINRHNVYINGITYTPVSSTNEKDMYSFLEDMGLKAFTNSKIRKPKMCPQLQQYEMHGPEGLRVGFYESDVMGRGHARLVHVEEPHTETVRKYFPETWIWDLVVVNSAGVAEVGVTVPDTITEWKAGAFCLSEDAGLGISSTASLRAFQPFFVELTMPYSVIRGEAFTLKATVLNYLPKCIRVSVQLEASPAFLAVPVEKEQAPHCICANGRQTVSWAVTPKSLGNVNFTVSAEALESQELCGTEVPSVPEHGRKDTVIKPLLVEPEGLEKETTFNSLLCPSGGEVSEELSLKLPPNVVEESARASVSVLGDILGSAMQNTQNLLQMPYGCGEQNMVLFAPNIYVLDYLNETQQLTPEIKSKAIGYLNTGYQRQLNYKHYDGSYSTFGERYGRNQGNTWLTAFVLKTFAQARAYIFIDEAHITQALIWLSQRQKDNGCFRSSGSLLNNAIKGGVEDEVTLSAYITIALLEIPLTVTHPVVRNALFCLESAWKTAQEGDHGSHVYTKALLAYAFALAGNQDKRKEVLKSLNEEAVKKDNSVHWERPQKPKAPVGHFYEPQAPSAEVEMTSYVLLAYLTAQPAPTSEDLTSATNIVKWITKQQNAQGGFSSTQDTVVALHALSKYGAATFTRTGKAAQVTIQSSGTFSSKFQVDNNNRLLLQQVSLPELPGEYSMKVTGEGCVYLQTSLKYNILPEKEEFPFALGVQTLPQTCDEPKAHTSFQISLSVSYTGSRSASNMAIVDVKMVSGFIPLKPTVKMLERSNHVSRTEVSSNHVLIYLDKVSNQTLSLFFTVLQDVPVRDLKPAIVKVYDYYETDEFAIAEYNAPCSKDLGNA
The test is described as follows: competition binding assay, immobilized α-2 macroglobulin. How it is done: OP-1 was determined to interact specifically with α-2 macroglobulin in a standard competition binding assay, using immobilized, commercially available α-2 macroglobulin, and labeled and unlabeled OP-1 protein. […] This N-terminal portion of the protein, which is not part of the crystal structure, is positively charged and likely is highly flexible in solution.

B1: Truncated mature OP-1 (ligand, UniProt P18075 315-431, looked up)
chain: MANVAENSSSDQRQACKKHELYVSFRDLGWQDWIIAPEGYAAYYCEGECAFPLNSYMNATNHAIVQTLVHFINPETVPKPCCAPTQLNAISVLYFDDSSNVILKKYRNMVVRACGCH
notes: range 23-139; The range is on mature-protein numbering (His 139 = C-terminus); also called truncated mature OP-1 (first 22 amino acids cleaved by trypsin)
On to B1, for which the “fold less affinity (against untruncated OP-1)” value was 10 fold.

(Values after patent US20020028453A1 (CURIS, published 2002).)
